We go through 4 sequences from publication PMC4759255.

This data set has as its target T1, His-LexA (Synechocystis sp. PCC 6803) (UniProt P73722).
T1 sequence: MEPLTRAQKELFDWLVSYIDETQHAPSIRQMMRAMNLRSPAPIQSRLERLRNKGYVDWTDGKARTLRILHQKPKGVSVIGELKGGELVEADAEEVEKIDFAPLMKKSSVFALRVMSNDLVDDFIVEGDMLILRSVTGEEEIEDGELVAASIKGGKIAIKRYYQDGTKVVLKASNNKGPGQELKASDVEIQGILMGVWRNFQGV
In words: EMSA. To be noted: Roche DIG gel shift kit 2nd generation buffer per manufacturer plus 1 mM DTT, 25 min at room temperature, 6% polyacrylamide gel; 5x and 50x unlabeled …. (In general: A gel shift assay detects complexes by their altered migration in electrophoresis.)
Regarding “GTGACAACTAACATCACCTAGATGATAAGTTAATTTACAACAAATGATTGTTAGCCAGCTCACCAAAACCTGTGACAATAAACACCAAAACAGTTTACTTGTTTCTATAATTTTCCCTGAAACTGGGGTTTGAGAGGGTCTAGGGGAGAATTTAGTTATTGTTTGGATATATTGTCATGGCACCACAAAAGCCGTCAACAAA (double strand) [pilA9 promoter]”, the binding entry is listed as “binds”.

Take “TGGGATCAAACAACAAGAAAAAATCAATTTACCCTGCCCATGGCAATAGTTTTAAGGTTAACAAAAAAAATAGAATTTACCGCAATCGACGGGTAAATTTCCAGAGGATACCCCCAACTCCAGAAGCAGAAATCTTGCCAGAAAAGCTTTTTCTGTTACTATACTTAACAAGTAACTACTTTTTCC (double strand) [ggpS promoter]”: the binding entry is recorded as “binds”.

Turning to “TGGGCAGGGTAAATTGATTTTTTCTTGTTGTTTGATCCCATTTTCCAGTCTTTTTGACTTCCATTCAGTCAGGATAATTTTTGCAGTTTTTTTATGGAGTTTTGATAACATTGAGCTTTGCCCCCGGCGATCGCCTAGGGATAAACAATAAACGTGTGAACTAATATGCCTGGATTTATCCCTGGATTGACATTGTTTTTGCC (double strand) [slr1670 promoter]”, the binding result is “binds”.

For “TTGTTCAAGATCATTAGGCTTTAGTATATTTATAGTGATCAAAAAAGCAAGTGGTGAAAGAAACACCCAGACAAATATTCACAAAACTTAATTTTACTTAACAAATCATAATCCAGTTACGCAGTTACCACCTACACGGGAACCAGAACGCACGATTCCCAAGCCGGAAGAAATTACTAAGCATGGCTCATAGGATGTTCTAC (double strand) [pilA7 promoter]”, the binding result is reported as “binds”.
